From patent US20100284934A1

Legend:
[1] = target: aggregated recombinant human α-synuclein produced by aging (amyloid fibrils) (human) (UniProt P37840); experiment: ELISA, α-synuclein coated at 100 pmol/well, range of peptide concentrations
[2] = target: aggregated recombinant human α-synuclein produced by aging (amyloid fibrils) (human) (UniProt P37840); experiment: ELISA, α-synuclein coated at 200 pmol/well, range of peptide concentrations
[3] = target: dopamine treated recombinant human α-synuclein (soluble aggregates, oligomers) (human) (UniProt P37840); experiment: ELISA, α-synuclein coated, peptide in solution

| lowest binding concentration detected [1] | lowest binding concentration detected [2] | lowest binding concentration detected [3] | Substance |
| --- | --- | --- | --- |
| 10 pmol/well |  |  | OR1, Gd-DOTA-rGtvvaGK(biotin)-rrrrrr (peptide) |
| 10 pmol/well |  |  | OR2, Gd-DOTA-rGvvaGK(biotin)-rrrrrr (peptide) |
|  | 10 pmol/well |  | OR3, Gd-DOTA-rrrrrrGtvvaGK(biotin)-r (peptide) |
|  | 10 pmol/well |  | OR4, Gd-DOTA-rrrrrrGvvaGK(biotin)-r (peptide) |
|  | 10 pmol/well | 1 pmol/well | OR5, Gd-DOTA-r-Sar-vva-Sar-K(biotin)-rrrrrr (peptide) |
